From patent US7569341 come the findings set out here.

Several values for one entry are separate records, joined by “and”; a condition that tells them apart may be missing. Equal values may be shown once.

Assay [1] has as its target bovine IgG whole molecules (reagent grade, Sigma) (bovine). Briefly: sandwich ELISA; capture CB on C-DNA well; IgG mixture; detected with aB-AP. A general note: In an ELISA, binding on a coated surface is turned into a signal by an enzyme label.
Assay [2] concerns the target mouse IgG whole molecules (Pierce) (mouse). Briefly: sandwich ELISA; capture BB on B-DNA well; IgG mixture; detected with aM-AP.
Assay [3] has as its target bovine IgG whole molecules (reagent grade, Sigma) (bovine). Description: sandwich ELISA; biotinylated antibody directly on streptavidin well; IgG mixture; detected with aB-AP.
The target in assay [4] is mouse IgG whole molecules (Pierce) (mouse). Description: sandwich ELISA; capture CB on C-DNA well; IgG mixture; detected with aM-AP.
The target of assay [5] is dog IgG whole molecules (reagent grade, Sigma) (dog). Description: sandwich ELISA; capture AB on A-DNA well; IgG mixture; detected with aD-AP.
Assay [6] deals with mouse IgG whole molecules (Pierce) (mouse). Description: sandwich ELISA; capture AB on A-DNA well; IgG mixture; detected with aM-AP.
The target in assay [7] is bovine IgG whole molecules (reagent grade, Sigma) (bovine). Briefly: sandwich ELISA; capture BB on B-DNA well; IgG mixture; detected with aB-AP.
The target of assay [8] is dog IgG whole molecules (reagent grade, Sigma) (dog). Briefly: sandwich ELISA; capture BB on B-DNA well; IgG mixture; detected with aD-AP.
Assay [9] addresses bovine IgG whole molecules (reagent grade, Sigma) (bovine). Description: sandwich ELISA; capture AB on A-DNA well; IgG mixture; detected with aB-AP.
The target of assay [10] is mouse IgG whole molecules (Pierce) (mouse). Briefly: sandwich ELISA; biotinylated antibody directly on streptavidin well; IgG mixture; detected with aM-AP.
Assay [11] has as its target dog IgG whole molecules (reagent grade, Sigma) (dog). Description: sandwich ELISA; capture CB on C-DNA well; IgG mixture; detected with aD-AP.
Assay [12] has as its target mouse IgG whole molecules (Pierce) (mouse). Description: sandwich ELISA; capture AD on A-DNA well; IgG mixture; detected with aM-AP.
Assay [13] concerns the target dog IgG whole molecules (reagent grade, Sigma) (dog). Briefly: sandwich ELISA; biotinylated antibody directly on streptavidin well; IgG mixture; detected with aD-AP.
Assay [14] has as its target bovine IgG whole molecules (reagent grade, Sigma) (bovine). Briefly: sandwich ELISA; capture CD on C-DNA well; IgG mixture; detected with aB-AP.
In assay [15] the target is dog IgG whole molecules (reagent grade, Sigma) (dog). Description: sandwich ELISA; capture CD on C-DNA well; IgG mixture; detected with aD-AP.
Assay [16] concerns the target bovine IgG whole molecules (reagent grade, Sigma) (bovine). Description: sandwich ELISA; capture BD on B-DNA well; IgG mixture; detected with aB-AP.
Assay [17] deals with mouse IgG whole molecules (Pierce) (mouse). Briefly: sandwich ELISA; capture CD on C-DNA well; IgG mixture; detected with aM-AP.
Assay [18] has the same target. Briefly: sandwich ELISA; capture BD on B-DNA well; IgG mixture; detected with aM-AP.
In assay [19] the target is dog IgG whole molecules (reagent grade, Sigma) (dog). Description: sandwich ELISA; capture AD on A-DNA well; IgG mixture; detected with aD-AP.
In assay [20] the target is bovine IgG whole molecules (reagent grade, Sigma) (bovine). Briefly: sandwich ELISA; capture AD on A-DNA well; IgG mixture; detected with aB-AP.
In assay [21] the target is dog IgG whole molecules (reagent grade, Sigma) (dog). Description: sandwich ELISA; capture BD on B-DNA well; IgG mixture; detected with aD-AP.
For assay [22], the target named is bovine IgG whole molecules (reagent grade, Sigma) (bovine). Briefly: sandwich ELISA; capture CM on C-DNA well; IgG mixture; detected with aB-AP.
Assay [23] has the same target. Description: sandwich ELISA; capture BM on B-DNA well; IgG mixture; detected with aB-AP.
The target of assay [24] is mouse IgG whole molecules (Pierce) (mouse). Briefly: sandwich ELISA; capture BM on B-DNA well; IgG mixture; detected with aM-AP.
Assay [25] shares this target. Description: ELISA on mouse IgG-coated plate, A405, against controls A and B.
The target is the same in assay [26]. Description: sandwich ELISA; capture CM on C-DNA well; IgG mixture; detected with aM-AP.
For assay [27] the target is unchanged. Description: sandwich ELISA; capture AM on A-DNA well; IgG mixture; detected with aM-AP.
Assay [28] deals with dog IgG whole molecules (reagent grade, Sigma) (dog). Description: sandwich ELISA; capture CM on C-DNA well; IgG mixture; detected with aD-AP.
The target is the same in assay [29]. Briefly: sandwich ELISA; capture BM on B-DNA well; IgG mixture; detected with aD-AP.
Assay [30] shares this target. Description: sandwich ELISA; capture AM on A-DNA well; IgG mixture; detected with aD-AP.
The target of assay [31] is bovine IgG whole molecules (reagent grade, Sigma) (bovine). Briefly: sandwich ELISA; capture AM on A-DNA well; IgG mixture; detected with aB-AP.

“biotinylated rabbit anti-bovine IgG (#B-7140), polyclonal rabbit IgG (antibody)”: the absorbance reading (405 nm) in assay [1] was 90; in [2], 153; in assay [3] it was 279 and 319 and 265; in [4] it was 24; in assay [5] it was 20; in assay [6] it was 146. The absorbance reading (405 nm) is 591 in assay [7]; 9 in assay [8]; 729 in assay [9]; 50 and 64 and 61 in assay [10]; 9 in [11].
In the case of “biotinylated rabbit anti-dog IgG (#B-7640), polyclonal rabbit IgG (antibody)”, the absorbance reading (405 nm) is 28 and 26 and 75 in assay [3]; 73 in [12]; 334 and 413 and 941 in [13]; 23 in assay [14]; 102 in assay [15]; 57 in [16]. The absorbance reading (405 nm) in assay [17] is 26; in [18], 31; in [10] it was 20 and 24 and 35; in assay [19], 673; in assay [20], 84; in [21], 481.
In the case of “biotinylated rabbit anti-mouse IgG (#B-8520), polyclonal rabbit IgG (antibody)”, the absorbance reading (405 nm) was 15 and 31 and 19 in [3]; 8 in assay [22]; 30 in [23]; 346 in assay [24]; 49 in assay [26]; 533 in assay [27]. Moreover, the absorbance reading (405 nm) in assay [28] is 5; in assay [29], 4; in assay [30] it was 8; in [10] it was 177 and 189 and 186; in assay [31], 45. For the same substance, the signal-to-noise ratio in assay [25] worked out at 60.
